Laboratory results taken from publication PMC9751095 (2022).

Target: T1, Myc-TRAP1 (human, UniProt Q12931 60-704)
T1 chain: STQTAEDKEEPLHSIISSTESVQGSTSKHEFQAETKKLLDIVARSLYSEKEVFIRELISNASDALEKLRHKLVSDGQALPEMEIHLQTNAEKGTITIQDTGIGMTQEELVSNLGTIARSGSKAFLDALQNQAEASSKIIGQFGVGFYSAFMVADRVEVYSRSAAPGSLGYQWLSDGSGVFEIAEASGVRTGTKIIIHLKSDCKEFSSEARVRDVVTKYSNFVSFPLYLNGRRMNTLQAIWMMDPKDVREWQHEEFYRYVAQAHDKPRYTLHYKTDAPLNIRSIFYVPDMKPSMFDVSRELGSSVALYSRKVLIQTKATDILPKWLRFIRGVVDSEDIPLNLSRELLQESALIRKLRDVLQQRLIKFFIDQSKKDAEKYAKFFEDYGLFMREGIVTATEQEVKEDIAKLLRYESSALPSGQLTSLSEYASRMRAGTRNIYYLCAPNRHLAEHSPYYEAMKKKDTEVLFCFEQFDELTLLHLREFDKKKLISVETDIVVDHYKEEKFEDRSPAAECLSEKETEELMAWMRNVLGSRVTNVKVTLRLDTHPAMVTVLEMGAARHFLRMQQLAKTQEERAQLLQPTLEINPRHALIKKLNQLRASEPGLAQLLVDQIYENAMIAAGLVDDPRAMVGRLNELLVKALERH
Test: SPR; printed as "Ka 69.8 µM"

B1: recombinant mature human OSCP (natural protein)
chain: FAKLVRPPVQVYGIEGRYATALYSAASKQNKLEQVEKELLRVAQILKEPKVAASVLNPYVKRSIKVKSLNDITAKERFSPLTTNLINLLAENGRLSNTQGVVSAFSTMMSVHRGEVPCTVTSASPLEEATLSELKTVLKSFLSQGQVLKLEAKTDPSILGGMIVRIGEKYVDMSVKTKIQKLGRAMREIV
Kd: 69.8 µM
